The target of data set [1] is SynDLP_(HPRN-AAAA) (Synechocystis sp. PCC 6803).
Data set [2] has the same target. Nature of the data set: SEC; analytical SEC, Superose 6 Increase 3.2/300 in reaction buffer (20 mM HEPES pH 7.4, 150 mM NaCl, 7.5 mM KCl, 5 mM MgCl2, 0.2 mM DTT); 30 µl of 10 µM protein; 7 °C; no nucleotide, no membrane.
The target in data set [3] is T1, SynDLP (Synechocystis sp. PCC 6803, UniProt P73765, K61A).
T1 construct: gene slr0869; full length, C-terminal His tag (pET303-CT/His), E. coli Rosetta-gami 2 (DE3), calculated 93 kDa; oligomer of ~40-50 monomers in solution; model covers aa 1-793, last 19 residues unresolved
T1 sequence (P73765 entry or part of it K61A): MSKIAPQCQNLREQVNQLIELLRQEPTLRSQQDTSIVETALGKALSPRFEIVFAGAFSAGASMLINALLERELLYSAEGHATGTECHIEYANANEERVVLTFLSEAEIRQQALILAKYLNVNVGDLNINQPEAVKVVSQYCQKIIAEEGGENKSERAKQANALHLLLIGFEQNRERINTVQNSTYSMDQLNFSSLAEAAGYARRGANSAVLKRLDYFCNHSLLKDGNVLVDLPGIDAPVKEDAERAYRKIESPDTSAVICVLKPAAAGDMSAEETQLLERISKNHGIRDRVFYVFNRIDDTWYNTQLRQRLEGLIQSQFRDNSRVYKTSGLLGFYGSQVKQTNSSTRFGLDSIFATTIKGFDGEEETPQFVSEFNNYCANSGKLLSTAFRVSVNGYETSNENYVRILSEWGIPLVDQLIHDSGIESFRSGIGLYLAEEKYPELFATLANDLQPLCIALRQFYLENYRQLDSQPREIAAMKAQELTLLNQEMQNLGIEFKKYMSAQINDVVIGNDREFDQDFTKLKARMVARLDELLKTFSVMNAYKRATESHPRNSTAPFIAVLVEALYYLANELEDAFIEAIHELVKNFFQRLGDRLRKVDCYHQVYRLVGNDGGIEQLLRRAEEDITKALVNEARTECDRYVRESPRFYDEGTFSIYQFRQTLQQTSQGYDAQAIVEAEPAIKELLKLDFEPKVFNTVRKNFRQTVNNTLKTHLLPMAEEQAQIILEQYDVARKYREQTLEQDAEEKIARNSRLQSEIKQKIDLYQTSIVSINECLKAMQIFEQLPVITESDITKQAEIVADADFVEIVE
In words: continuous regenerative coupled GTPase assay. The format is biochemical. To be noted: P-loop mutant.

Data set [4] concerns the target SynDLP, the dynamin-like protein of Synechocystis sp. PCC 6803 (Synechocystis sp. PCC 6803). Nature of the data set: cryo-EM structure; about 3.0 mg/mL SynDLP in 5 mM MgCl2, 7.5 mM KCl, 20 mM HEPES pH 7.4 (no NaCl), no nucleotide, no membrane; segmented single-particle analysis, C2 symmetry; model of 8 monomers.
Data set [5] shares this target.
Substrate in data set [6]: Nc1nc2c(ncn2[C@@H]2O[C@H](COP(=O)(O)OP(=O)(O)OP(=O)(O)O)[C@@H](O)[C@H]2O)c(=O)[nH]1
In words: continuous regenerative coupled GTPase assay (PK/LDH, NADH). The format is biochemical, Synechocystis sp. PCC 6803. Conditions: 0.5 µM protein, 20 mM HEPES pH 7.4, 150 mM NaCl, 7.5 mM KCl, 5 mM MgCl2, 0.2 mM DTT, 30 °C, no liposomes. From the text:
continuous regenerative coupled GTPase assay (PK/LDH, NADH) on […]

With SynDLP_(HPRN-AAAA) (natural protein), the kcat of GTP hydrolysis (continuous, regenerative, coupled GTPase assay, 0.5 µM protein) in data set [1] came out at 0.283 s⁻¹. The same molecule returned a stoichiometry N in data set [2] of 2.
In the case of `Nc1nc2c(ncn2[C@@H]2O[C@H](COP(=O)(O)OP(=O)(O)OP(=O)(O)O)[C@@H](O)[C@H]2O)c(=O)[nH]1` [GTP], the “continuous regenerative coupled GTPase assay” value in data set [3] is given as “A mutation of a conserved residue in the P-loop (K61A) considerably reduced the GTPase activity”.
The molecule “SynDLP, the dynamin-like protein of Synechocystis sp. PCC 6803 (natural protein)” gave a stoichiometry N in data set [4] of 40 to 50 monomers. Moreover, the kcat of GTP hydrolysis (continuous, regenerative, coupled GTPase assay, 0.5 µM protein) in data set [5] was 0.743 s⁻¹.

B1: SynDLP (Synechocystis sp. PCC 6803 substr. Kazusa) (protein)
chain: MSKIAPQCQNLREQVNQLIELLRQEPTLRSQQDTSIVETALGKALSPRFEIVFAGAFSAGKSMLINALLERELLYSAEGHATGTECHIEYANANEERVVLTFLSEAEIRQQALILAKYLNVNVGDLNINQPEAVKVVSQYCQKIIAEEGGENKSERAKQANALHLLLIGFEQNRERINTVQNSTYSMDQLNFSSLAEAAGYARRGANSAVLKRLDYFCNHSLLKDGNVLVDLPGIDAPVKEDAERAYRKIESPDTSAVICVLKPAAAGDMSAEETQLLERISKNHGIRDRVFYVFNRIDDTWYNTQLRQRLEGLIQSQFRDNSRVYKTSGLLGFYGSQVKQTNSSTRFGLDSIFATTIKGFDGEEETPQFVSEFNNYCANSGKLLSTAFRVSVNGYETSNENYVRILSEWGIPLVDQLIHDSGIESFRSGIGLYLAEEKYPELFATLANDLQPLCIALRQFYLENYRQLDSQPREIAAMKAQELTLLNQEMQNLGIEFKKYMSAQINDVVIGNDREFDQDFTKLKARMVARLDELLKTFSVMNAYKRATESHPRNSTAPFIAVLVEALYYLANELEDAFIEAIHELVKNFFQRLGDRLRKVDCYHQVYRLVGNDGGIEQLLRRAEEDITKALVNEARTECDRYVRESPRFYDEGTFSIYQFRQTLQQTSQGYDAQAIVEAEPAIKELLKLDFEPKVFNTVRKNFRQTVNNTLKTHLLPMAEEQAQIILEQYDVARKYREQTLEQDAEEKIARNSRLQSEIKQKIDLYQTSIVSINECLKAMQIFEQLPVITESDITKQAEIVADADFVEIVE
notes: full length, C-terminal His tag (pET303-CT/His), E. coli Rosetta-gami 2 (DE3), calculated 93 kDa; oligomer of ~40-50 monomers in solution; model covers aa 1-793, last 19 residues unresolved
As for B1, in data set [6], the Km was found to be 500 ± 40 µM and the turnover number (kcat) came to 0.743 ± 0.0167 s⁻¹.

B2: SynDLP (Synechocystis sp. PCC 6803 substr. Kazusa; C777A) (protein)
chain: MSKIAPQCQNLREQVNQLIELLRQEPTLRSQQDTSIVETALGKALSPRFEIVFAGAFSAGKSMLINALLERELLYSAEGHATGTECHIEYANANEERVVLTFLSEAEIRQQALILAKYLNVNVGDLNINQPEAVKVVSQYCQKIIAEEGGENKSERAKQANALHLLLIGFEQNRERINTVQNSTYSMDQLNFSSLAEAAGYARRGANSAVLKRLDYFCNHSLLKDGNVLVDLPGIDAPVKEDAERAYRKIESPDTSAVICVLKPAAAGDMSAEETQLLERISKNHGIRDRVFYVFNRIDDTWYNTQLRQRLEGLIQSQFRDNSRVYKTSGLLGFYGSQVKQTNSSTRFGLDSIFATTIKGFDGEEETPQFVSEFNNYCANSGKLLSTAFRVSVNGYETSNENYVRILSEWGIPLVDQLIHDSGIESFRSGIGLYLAEEKYPELFATLANDLQPLCIALRQFYLENYRQLDSQPREIAAMKAQELTLLNQEMQNLGIEFKKYMSAQINDVVIGNDREFDQDFTKLKARMVARLDELLKTFSVMNAYKRATESHPRNSTAPFIAVLVEALYYLANELEDAFIEAIHELVKNFFQRLGDRLRKVDCYHQVYRLVGNDGGIEQLLRRAEEDITKALVNEARTECDRYVRESPRFYDEGTFSIYQFRQTLQQTSQGYDAQAIVEAEPAIKELLKLDFEPKVFNTVRKNFRQTVNNTLKTHLLPMAEEQAQIILEQYDVARKYREQTLEQDAEEKIARNSRLQSEIKQKIDLYQTSIVSINEALKAMQIFEQLPVITESDITKQAEIVADADFVEIVE
notes: as for B1
For B2, in data set [6], the Km is 350 ± 40 µM and the kcat amounted to 0.462 ± 0.0133 s⁻¹.

B3: SynDLP (Synechocystis sp. PCC 6803 substr. Kazusa; H552A/N555A/P553A/R554A) (protein)
chain: MSKIAPQCQNLREQVNQLIELLRQEPTLRSQQDTSIVETALGKALSPRFEIVFAGAFSAGKSMLINALLERELLYSAEGHATGTECHIEYANANEERVVLTFLSEAEIRQQALILAKYLNVNVGDLNINQPEAVKVVSQYCQKIIAEEGGENKSERAKQANALHLLLIGFEQNRERINTVQNSTYSMDQLNFSSLAEAAGYARRGANSAVLKRLDYFCNHSLLKDGNVLVDLPGIDAPVKEDAERAYRKIESPDTSAVICVLKPAAAGDMSAEETQLLERISKNHGIRDRVFYVFNRIDDTWYNTQLRQRLEGLIQSQFRDNSRVYKTSGLLGFYGSQVKQTNSSTRFGLDSIFATTIKGFDGEEETPQFVSEFNNYCANSGKLLSTAFRVSVNGYETSNENYVRILSEWGIPLVDQLIHDSGIESFRSGIGLYLAEEKYPELFATLANDLQPLCIALRQFYLENYRQLDSQPREIAAMKAQELTLLNQEMQNLGIEFKKYMSAQINDVVIGNDREFDQDFTKLKARMVARLDELLKTFSVMNAYKRATESAAAASTAPFIAVLVEALYYLANELEDAFIEAIHELVKNFFQRLGDRLRKVDCYHQVYRLVGNDGGIEQLLRRAEEDITKALVNEARTECDRYVRESPRFYDEGTFSIYQFRQTLQQTSQGYDAQAIVEAEPAIKELLKLDFEPKVFNTVRKNFRQTVNNTLKTHLLPMAEEQAQIILEQYDVARKYREQTLEQDAEEKIARNSRLQSEIKQKIDLYQTSIVSINECLKAMQIFEQLPVITESDITKQAEIVADADFVEIVE
notes: as for B1
Consider B3, for which, in data set [6], the Michaelis-Menten constant (Km) was found to be 330 ± 20 µM and the kcat came to 0.283 ± 0.00333 s⁻¹.

Source of the values: paper PMC10104851, “SynDLP is a dynamin-like protein of Synechocystis sp. PCC 6803 with eukaryotic features” (Nature Communications, 2023).
